{"source": "patent US20230250157A1", "about": "(CALIFORNIA INSTITUTE OF TECHNOLOGY, published 2023)", "key": {"SARS-CoV RBD [1]": {"molecular_target": "T1, SARS-CoV RBD (SARS-CoV, UniProt P59594 318-510)", "assay": "ELISA, coated RBD, purified IgG"}, "SARS-CoV-2 WA1 RBD [2]": {"molecular_target": "T2, SARS-CoV-2 WA1 RBD (SARS-CoV-2 WA1, UniProt P0DTC2 319-539)", "T2 construct": "range 319-539", "assay": "Beacon optofluidic screen: IgG secreted by single B cell, RBD on beads"}, "SARS-CoV RBD [3]": {"molecular_target": "T1, SARS-CoV RBD", "assay": "Beacon optofluidic screen: IgG secreted by single B cell, RBD on beads"}, "SARS-CoV-2 WA1 RBD [4]": {"molecular_target": "T2, SARS-CoV-2 WA1 RBD", "assay": "X-ray crystallography of SEC-purified Fab-RBD complex"}, "SARS-CoV-2 WA1 RBD [5]": {"molecular_target": "T2, SARS-CoV-2 WA1 RBD", "assay": "X-ray crystallography of SEC-purified Fab-RBD complex (PDB 7UZC)"}, "SARS-CoV-2 WA1 RBD [6]": {"molecular_target": "T2, SARS-CoV-2 WA1 RBD", "assay": "X-ray crystallography of SEC-purified Fab-RBD complex (PDB 7UZD)"}, "SARS-CoV-2 WA1 RBD [7]": {"molecular_target": "T2, SARS-CoV-2 WA1 RBD", "assay": "ELISA, purified IgG"}}, "data": [{"binder": "HSW-1 (antibody, V domains shown) VH: QVQLQQPGAELVKPGTSMKLSCKASGYTFTSYWMHWVKQRPGQGLEWIGMIHPNSGSTKYNENFKSKATLTVDKSSSTAYMQFSSLTSEDSAVYYCVRSGSYYGTTYDYFDYWGQGTTLTVSS VL: DIVLTQSPASLAVSLGQRATISCRASESVNIYGNSFMHWYQQKPGQPPKLLIFRASNLESGIPVRFSGSGSRTDFTLTINPVEADDVATYYCHQSNEDPFTFGSGTKLEIK", "values": [{"measurement": "binding result", "setting": "SARS-CoV RBD [1]", "result": "no binding (tested: up to 100 µg/mL IgG)"}, {"measurement": "binding result", "setting": "SARS-CoV-2 WA1 RBD [2]", "result": "binds"}]}, {"binder": "M8a-3 (antibody, V domains shown) VH: QVQLQQPGAELVLPGASVKLSCKASGYTFTNYWMHWVKQRPGHGLEWIGEIDPFDTYIKINQKFKGKSTLTVDTSSSTAYMQLSSLTSEDSAVYYCARPDSSGYPVYFDYWGQGTTLTVSS VL: DIVMTQSHKFMSTSVGDRVSITCKASQDVGTYIAWYQQKPGQSPKLLIYWASTRHTGVPDRFTGSGSGTNYTLTISSVQAEDLALYHCQQHYSTPYTFGGGTKLEIK", "values": [{"measurement": "binding result", "setting": "SARS-CoV RBD [3]", "result": "binds"}]}, {"binder": "M8a-6 (antibody, V domains shown) VH: QVQLQQPGTELVMPGASVKLSCKTSGYTFTHYWMHWVKQRPGEGLEWIGEIAPSDNYVKYNQKFKGKSTLSVDRSSSTAYMQLSSLTSEDSAVYFCARPDNSGYPVYFDYWGQGTSLTVSS VL: DIVMTQSQKFMSTSLGDRVSISCKASQDVGTTVAWYQQKPGQSPKLLIYWASTRHTGVPDRFTGTGSGTDYTLTISSVAAEDLALYYCQQHYNTPYTFGGGTKLEIE", "values": [{"measurement": "binding result", "setting": "SARS-CoV-2 WA1 RBD [2]", "result": "binds"}]}, {"binder": "M8a-6 Fab (Fab, V domains shown) VH: QVQLQQPGTELVMPGASVKLSCKTSGYTFTHYWMHWVKQRPGEGLEWIGEIAPSDNYVKYNQKFKGKSTLSVDRSSSTAYMQLSSLTSEDSAVYFCARPDNSGYPVYFDYWGQGTSLTVSS VL: DIVMTQSQKFMSTSLGDRVSISCKASQDVGTTVAWYQQKPGQSPKLLIYWASTRHTGVPDRFTGTGSGTDYTLTISSVAAEDLALYYCQQHYNTPYTFGGGTKLEIE", "values": [{"measurement": "binding result", "setting": "SARS-CoV-2 WA1 RBD [4]", "result": "binds"}]}, {"binder": "M8a-34 Fab (Fab, V domains shown) VH: QVQLQQPGAELVKPGASVKMSCKASGYTFITYWITWVKQRPGQGLEWIGDIYPGGGRTNYNEKFKSKATLTVDTSSSTAYMQLRSLTSEDSAVYYCARYDGNYVGYYYAMDYWGQGTSVTVSS VL: DIVLTQSPVSLAVSLGQRATISCRASESVDFYGNSFIYWYQQKPGQAPKLLIYRASNLESGIPARFSGSGSRTDFTLTIHPVEADDVATYYCQQSIEDPRTFGGGTKLEIK", "values": [{"measurement": "binding result", "setting": "SARS-CoV-2 WA1 RBD [5]", "result": "binds"}]}, {"binder": "M8a-7 (antibody, V domains shown) VH: QAYLQQSGAEMVRPGASVKMSCKASGYTFNNYNMHWVKQTPSQGLEWIGGFYPGNDDTAYSQKFKGKATLTVDKSSSTAFMHLSSLTSEDSAVYFCARSLGRYYAMDYWGQGTSVTVSS VL: not shown", "values": [{"measurement": "binding result", "setting": "SARS-CoV RBD [3]", "result": "binds"}]}, {"binder": "HSW-2 Fab (Fab, V domains shown) VH: QVQLQQSGPELVKPGASVKISCKASGYVFSTSWMSWVKQRPGEGPEWIGRIYPRDGHSSSTGKFKDKATLTADKSSNTAYIHLSSLTSEDSAVYFCARDYGYYYFDYWGQGTTLTVSS VL: DIQMTQSPASLSASVGEAVTITCRLSENVYSFLAWYQQKQGKSPQLLVYRAKTLAEGVPSRFSGSGSGTQFSLKINSLQPEDFGTYYCQHHYGTPPTFGGGTKLEIK", "values": [{"measurement": "binding result", "setting": "SARS-CoV-2 WA1 RBD [6]", "result": "binds"}]}, {"binder": "M8a-25 (antibody, V domains shown) VH: EVQLQQSVAELVRPGASVKLSCTASGFNIKNTYMHWVKQRPEQGLEWIGRIDPSIDHTRYAPKFQGKAVITAFTSSNTAYLQLSSLTSEDTAIYYCAREGGGNYPYYYAIDYWGQGTSVTVSS VL: DIQMTQSSSSFSVSLGDRVTITCKASEDIYIRLAWYQQRPGNAPRLLISNAISLETGVPSRFSGSGFGKDHTLSITSLQTEDVATYYCQQYWSTPWTFGGGTKLEIK", "values": [{"measurement": "binding result", "setting": "SARS-CoV RBD [3]", "result": "binds"}]}, {"binder": "M8a-28 (antibody, V domains shown) VH: QVQLQQPGAELVKPGASVKMSCKASGYNFNHYWISWVKQRPGQGLEWIGDIYPLSHFTTYNEKFTNRATLTVDTSSTTAYMQLNSLTSDDSAVFYCARWDYFDSRTFDYWGQGTTLTVSS VL: DILLTQFPAILSVSPGERVSFSCRASQTIGTNIHWYQQRINGSPRLLIKYASESISGIPSRFSGSGSGTDFSLSINNVESEDIADYYCQQINSWPLTFGAGTKLDLK", "values": [{"measurement": "binding result", "setting": "SARS-CoV RBD [3]", "result": "binds"}]}, {"binder": "M8a-31 (antibody, V domains shown) VH: EVQLKQSVAELVRPGASVKVSCTASGFNIKNIYMHWVKQRPEQGLDWIGRIDPANGNSRYAPKFQDKATITADTSSNTAYLQLSSLTSEDTAIYYCADEGWGFANWGQGTLVTVSA VL: DIVMTQSPSSLTVTAGEKVTMSCKSSQSLLNSGNQKNYLTWYQQKVGQPPKLLIYWASTRDPGVPDRFTGSGFGTDFTLTISSVQAEDLAVYYCQNDYSYPLTFGAGTKVELK", "values": [{"measurement": "binding result", "setting": "SARS-CoV-2 WA1 RBD [7]", "result": "binds"}, {"measurement": "binding result", "setting": "SARS-CoV RBD [3]", "result": "binds"}]}, {"binder": "M8a-34 (antibody, V domains shown) VH: QVQLQQPGAELVKPGASVKMSCKASGYTFITYWITWVKQRPGQGLEWIGDIYPGGGRTNYNEKFKSKATLTVDTSSSTAYMQLRSLTSEDSAVYYCARYDGNYVGYYYAMDYWGQGTSVTVSS VL: DIVLTQSPVSLAVSLGQRATISCRASESVDFYGNSFIYWYQQKPGQAPKLLIYRASNLESGIPARFSGSGSRTDFTLTIHPVEADDVATYYCQQSIEDPRTFGGGTKLEIK", "values": [{"measurement": "binding result", "setting": "SARS-CoV-2 WA1 RBD [2]", "result": "binds"}, {"measurement": "binding result", "setting": "SARS-CoV RBD [3]", "result": "binds"}]}, {"binder": "HSW-2 (antibody, V domains shown) VH: QVQLQQSGPELVKPGASVKISCKASGYVFSTSWMSWVKQRPGEGPEWIGRIYPRDGHSSSTGKFKDKATLTADKSSNTAYIHLSSLTSEDSAVYFCARDYGYYYFDYWGQGTTLTVSS VL: DIQMTQSPASLSASVGEAVTITCRLSENVYSFLAWYQQKQGKSPQLLVYRAKTLAEGVPSRFSGSGSGTQFSLKINSLQPEDFGTYYCQHHYGTPPTFGGGTKLEIK", "values": [{"measurement": "binding result", "setting": "SARS-CoV RBD [1]", "result": "no binding (tested: up to 100 µg/mL IgG)"}, {"measurement": "binding result", "setting": "SARS-CoV-2 WA1 RBD [2]", "result": "binds"}]}]}
